# From PMC8956589, “Crystal structure of progeria mutant S143F lamin A/C reveals increased hydrophobicity driving nuclear deformation” (Communications Biology, 2022)
# Positions count from the first letter of the chain named. Names may count otherwise.
# B1: wild-type lamin A/C fragment (residues 1–300) (domain or fragment, human, UniProt P02545 1-300, looked up)
# chain: METPSQRRATRSGAQASSTPLSPTRITRLQEKEDLQELNDRLAVYIDRVRSLETENAGLRLRITESEEVVSREVSGIKAAYEAELGDARKTLDSVAKERARLQLELSKVREEFKELKARNTKKEGDLIAAQARLKDLEALLNSKEAALSTALSEKRTLEGELHDLRGQVAKLEAALGEAKKQLQDEMLRRVDAENRLQTMKEELDFQKNIYSEELRETKRRHETRLVEIDNGKQREFESRLADALQELRAQHEDQVEQYKKELEKTYSAKLDNARQSAERNSNLVGAAHEELQQSRIRID
# notes: human lamin A/C, residues 1-300 (head, coil 1a, L1, coil 1b, L12 and part of coil 2); Dimer by SEC-MALS; The vector pProEx-HTa is named for the S143F construct; also called lamin 300 fragment; wild-type lamin 300 fragment; source: E. coli, purified (cobalt-Talon, TEV cleavage, HiTrap Q, SEC)
# B2: hexaHis-tagged lamin fragment (residues 250–400) (domain or fragment, human, UniProt P02545 250-400, looked up)
# chain: AQHEDQVEQYKKELEKTYSAKLDNARQSAERNSNLVGAAHEELQQSRIRIDSLSAQLSQLQKQLAAKEAKLRDLEDSLARERDTSRRLLAEKEREMAEMRARMQQQLDEYQELLDIKLALDMEIHAYRKLLEGEEERLRLSPSPTSQRSRG
# notes: human lamin A/C, residues 250-400 (C-terminal fragment of coil 2); also called His-lamin 2 C fragment; lamin 2 C fragment; source: E. coli, purified
# B3: S143F mutant lamin A/C fragment (residues 1–300) (domain or fragment, human, UniProt P02545 1-300, looked up)
# chain: B1 chain with S143F
# notes: human lamin A/C, residues 1-300, with the disease mutation S143F (a genetic mutation found in patients); Vector pProEx-HTa; Ordered in the crystal: residues 29-229 and 31-229; also called S143F mutant lamin 300 fragment; Lamin S143F (residues 1–300); source: E. coli BL21 (DE3) or B834 (DE3), purified (cobalt-Talon, TEV cleavage, HiTrap Q, SEC)
# What was measured:
# [1] = target: the molecule itself; experiment: SEC-MALS; 2 mg/mL sample on Superdex 200 Increase 10/300 GL, 20 mM Tris-HCl (pH 7.5), 150 mM NaCl
# [2] = target: B1; experiment: pull-down; hexaHis-tagged lamin 250–400 immobilised on Ni-NTA resin as bait, tagless lamin 300 fragments as prey; 20 mM Tris-HCl (pH 8.0), 50 mM or 150 mM NaCl, 20 mM imidazole in the wash, room temperature, 30 min; SDS-PAGE; details: both partners purified
# [3] = target: B3; experiment: as above; details: both partners purified
binding result [2],binding result [3],Binder,stoichiometry N [1]
,,B1,2
binds,binds,B2,
,,B3,2
